PMC2752837

Legend:
Assay in all cases: purified protein
Conditions in all cases: 50 mM CHES pH 9.5, 10 mM DTT, 37 °C
[1] = test system: CCOC(=O)[C@H](CCCNC(=N)N)NC(=O)c1ccccc1
[2] = test system: N=C(N)NCCCC[C@H](N)C(=O)O
[3] = test system: N=C(N)NCCC[C@H](N)C(=O)NO
N=C(N)NOCC[C@H](N)C(=O)O = test system: N=C(N)NOCC[C@H](N)C(=O)O
[4] = test system: N=C(NO)NCCC[C@H](N)C(=O)O

Q: Which Km [1] does the source give for “truncated PAD (peptidylarginine deiminase, 43-amino acid N-terminal deletion) (Porphyromonas gingivalis W83)” here?
A: Its Km is “(18 ± 1)×10^3 µM”.

Q: What about the kcat/Km [1] of the same substance?
A: The kcat/Km was 0.99 M⁻¹ s⁻¹.

Q: What about the Km [2] of the same substance?
A: The Km was “(4.7 ± 0.8)×10^3 µM”.

Q: And the kcat [2]?
A: Its kcat is 0.11 s⁻¹.

Q: What about the kcat/Km [2] of the same substance?
A: The kcat/Km was 24 M⁻¹ s⁻¹.

Q: What about the Km [3] of the same substance?
A: The Km was “(6.9 ± 0.5)×10^3 µM”.

Q: And the kcat [3]?
A: Its kcat is 0.15 s⁻¹.

Q: What about the Km (N=C(N)NOCC[C@H](N)C(=O)O) of the same substance?
A: The Km was “(6 ± 1)×10^3 µM”.

Q: What about the kcat (N=C(N)NOCC[C@H](N)C(=O)O) of the same substance?
A: The kcat was 0.0052 s⁻¹.

Q: And the kcat/Km (N=C(N)NOCC[C@H](N)C(=O)O)?
A: Its kcat/Km is 0.93 M⁻¹ s⁻¹.

Q: What about the Km [4] of the same substance?
A: The Km was “(1.5 ± 0.5)×10^3 µM”.

Q: What about the kcat [4] of the same substance?
A: The kcat was 0.0046 s⁻¹.

Q: And the kcat/Km [4]?
A: Its kcat/Km is 3 M⁻¹ s⁻¹.
